In assay [1] the target is T1, native Gmd of S. aureus Xen29 (Staphylococcus aureus, UniProt P0C5Z8 776-1255, limits assumed).
T1 construct: domain: glucosaminidase (Gmd) subunit of autolysin
T1 sequence (looked up): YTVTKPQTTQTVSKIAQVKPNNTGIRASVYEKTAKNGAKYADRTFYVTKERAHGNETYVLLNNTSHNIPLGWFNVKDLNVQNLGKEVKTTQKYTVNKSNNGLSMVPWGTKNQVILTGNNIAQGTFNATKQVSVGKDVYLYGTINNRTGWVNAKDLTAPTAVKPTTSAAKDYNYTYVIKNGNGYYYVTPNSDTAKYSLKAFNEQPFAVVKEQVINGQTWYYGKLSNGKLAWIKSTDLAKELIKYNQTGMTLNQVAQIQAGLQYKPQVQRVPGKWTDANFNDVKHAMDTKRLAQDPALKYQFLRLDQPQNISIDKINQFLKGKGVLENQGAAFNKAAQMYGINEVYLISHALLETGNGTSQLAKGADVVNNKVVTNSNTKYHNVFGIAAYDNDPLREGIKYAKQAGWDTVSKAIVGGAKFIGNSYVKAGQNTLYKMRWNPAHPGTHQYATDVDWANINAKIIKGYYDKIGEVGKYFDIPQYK
In words: estimate from the dose dependence of the Xen29 growth (light scattering) assay, assuming about ten times the Kd is required.

In assay [2] the target is T2, recombinant His-glucosaminidase (His-Gmd) of Staphylococcus aureus autolysin (Staphylococcus aureus, UniProt A7X0T9 775-1254).
T2 construct: also called Gmd-His; recombinant Gmd
T2 sequence: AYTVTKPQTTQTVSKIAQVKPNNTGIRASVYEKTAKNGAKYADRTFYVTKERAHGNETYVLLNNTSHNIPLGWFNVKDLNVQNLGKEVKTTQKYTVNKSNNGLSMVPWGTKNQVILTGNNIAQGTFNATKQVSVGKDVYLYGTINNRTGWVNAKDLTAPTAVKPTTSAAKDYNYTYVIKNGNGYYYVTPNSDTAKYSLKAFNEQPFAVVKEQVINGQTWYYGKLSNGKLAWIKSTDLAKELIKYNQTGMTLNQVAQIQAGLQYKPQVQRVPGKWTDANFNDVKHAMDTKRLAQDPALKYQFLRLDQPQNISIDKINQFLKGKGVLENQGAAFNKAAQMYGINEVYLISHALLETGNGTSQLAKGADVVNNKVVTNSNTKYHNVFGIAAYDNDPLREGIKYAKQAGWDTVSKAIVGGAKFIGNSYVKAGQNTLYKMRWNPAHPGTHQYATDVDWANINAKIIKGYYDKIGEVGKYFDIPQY
In words: method not stated; hybridomas screened by ELISA and western dot-blot.

B1: anti-Gmd monoclonal antibody 1C11 (antibody, V domains shown)
VH: QIQLVQSGPELKKPGETVKISCKASGYTFTTYGMSWVNQAPGKGLKWMGWINTYSGVPTYADDFKGRFVFSLETSASTAYLQINNLKNEDTATYFCAREEYSSGYAAWFPYWGQGTLVTVSA
VL: DIVLTQSPATLSVTPGDSVSLSCRASQSISNNLHWYQQKSHESPRLLIEYASRSISGIPSRFSGGGSGTDFTLSINSVESEDFGLYFCQQSNSWPLTFGAGTKLELK
notes: also called mAb 1C11; mouse 1C11
On to B1, for which the Kd – broadly, the free concentration of one partner at which half of the binding sites on the other are occupied at equilibrium, for simple one-to-one binding – in assay [1] was ~1 nM; in assay [2], ≤ 1 nM.

B2: anti-Gmd monoclonal antibody 3A8 (antibody, V domains shown)
VH: EVQLQESGGGLVQPGGSMKLSCAASGFTFSDAWMDWVRQSPEKGLEWVAEIKDKTNNHATYYAESVKGRFTISRDVSKSRVFLQMNSLRPEDTGIYYCTSGPYFDYWGQGTTLTVSS
VL: DIVMTQSHKFMSTSVGDRVSITCKASQDVSTAVAWYQQKPGQSPKLLIYWTSTRHTGVPDRFTGSGSGTDFTLTISSVQAKDLALYYCQQHYTTPYTFGGGTKLEIK
notes: also called mAb 3A8; hybridoma 3A8
In the case of B2, the Kd is ~1 nM in assay [1] and ≤ 1 nM in assay [2].
